Laboratory results from publication PMC11323494, “A network of acetyl phosphate-dependent modification modulates c-di-AMP homeostasis in Actinobacteria” (mBio, 2024).
pKd: −log10 of the molar value.

Test system: DasR K78Q (Saccharopolyspora erythraea NRRL2338)
Experiment: BLI
Details: BLI: 10 mM HEPES pH 8.0, 2 mM MgCl2, 0.1 mM EDTA, 200 mM KCl (running buffer + 10 µg/mL BSA, 0.02% Tween-20), SA sensor, temperature not stated; EMSA: 5 nM …

## disA promoter probe
  pKd: 4.70
